Patent US20180016312A1 (Pieris, published 2018)

T1: human angiopoietin-2 (human, UniProt O15123 19-496, limits assumed)
T1 construct: Bought recombinant protein with a His tag (detected by anti-HIS-tag antibody); also called human Ang-2; hAng-2
T1 sequence (looked up): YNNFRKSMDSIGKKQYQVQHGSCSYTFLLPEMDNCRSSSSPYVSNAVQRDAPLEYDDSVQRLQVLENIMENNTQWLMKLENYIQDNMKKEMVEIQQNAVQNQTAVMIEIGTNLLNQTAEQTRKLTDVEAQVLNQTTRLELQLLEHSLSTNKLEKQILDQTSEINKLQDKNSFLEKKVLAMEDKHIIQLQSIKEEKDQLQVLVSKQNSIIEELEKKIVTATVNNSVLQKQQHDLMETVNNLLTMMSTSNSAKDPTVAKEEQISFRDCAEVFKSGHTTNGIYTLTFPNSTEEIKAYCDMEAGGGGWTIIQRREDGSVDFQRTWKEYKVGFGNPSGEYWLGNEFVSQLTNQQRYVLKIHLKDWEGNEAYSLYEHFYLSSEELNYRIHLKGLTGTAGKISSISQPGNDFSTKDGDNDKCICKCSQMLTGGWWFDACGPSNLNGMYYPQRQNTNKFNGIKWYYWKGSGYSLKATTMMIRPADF

T2: human angiopoietin-1 (human, UniProt Q15389 20-498, limits assumed)
T2 construct: Bought recombinant protein; also called human Ang-1; hAng-1
T2 sequence (looked up): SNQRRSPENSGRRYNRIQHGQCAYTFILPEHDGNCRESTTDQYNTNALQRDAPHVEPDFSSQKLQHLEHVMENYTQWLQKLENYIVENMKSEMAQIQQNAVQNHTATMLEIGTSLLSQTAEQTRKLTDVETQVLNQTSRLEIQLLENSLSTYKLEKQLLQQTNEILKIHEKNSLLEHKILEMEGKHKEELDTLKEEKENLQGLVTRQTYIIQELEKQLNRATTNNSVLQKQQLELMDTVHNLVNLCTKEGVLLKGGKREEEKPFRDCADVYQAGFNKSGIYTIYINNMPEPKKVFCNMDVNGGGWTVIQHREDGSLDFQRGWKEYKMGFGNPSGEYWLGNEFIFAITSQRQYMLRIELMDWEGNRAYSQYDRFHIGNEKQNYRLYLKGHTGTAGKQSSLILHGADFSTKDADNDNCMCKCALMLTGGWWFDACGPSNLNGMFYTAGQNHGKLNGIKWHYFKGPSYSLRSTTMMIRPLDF

T3: mouse angiopoietin-2 (mouse, UniProt O35608 19-496, limits assumed)
T3 construct: Bought recombinant protein; also called mouse Ang-2; mAng-2
T3 sequence (looked up): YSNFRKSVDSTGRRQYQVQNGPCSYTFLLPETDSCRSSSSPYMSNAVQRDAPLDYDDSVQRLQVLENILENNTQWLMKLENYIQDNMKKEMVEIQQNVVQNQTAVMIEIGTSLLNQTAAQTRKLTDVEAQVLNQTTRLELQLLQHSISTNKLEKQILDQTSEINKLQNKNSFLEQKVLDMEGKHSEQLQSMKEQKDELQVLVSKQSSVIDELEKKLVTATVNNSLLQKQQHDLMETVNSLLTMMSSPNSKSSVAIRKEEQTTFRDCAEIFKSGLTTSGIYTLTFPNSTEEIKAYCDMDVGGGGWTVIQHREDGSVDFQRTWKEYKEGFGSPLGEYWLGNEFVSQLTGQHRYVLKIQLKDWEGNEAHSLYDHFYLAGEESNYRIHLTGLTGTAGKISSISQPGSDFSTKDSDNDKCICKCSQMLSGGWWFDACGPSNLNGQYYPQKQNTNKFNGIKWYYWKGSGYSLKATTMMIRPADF


Legend:
human angiopoietin-2 [1] = target: T1, human angiopoietin-2; assay: SPR Biacore T200; upper end of the range, tied to SEQ ID NO: 7 by Table 3
Protocol: (§1) In the SPR affinity assay, biotinylated muteins and negative control were captured on a sensor chip CAP using the Biotin CAPture Kit (GE Healthcare): Sensor Chip CAP is pre-immobilized with an ssDNA oligo. Undiluted Biotin CAPture Reagent (streptavidin conjugated with the complementary ss-DNA oligo) was applied at a flow rate of 2 μl/min for 300 s. Subsequently, 0.02 μg/mL of biotinylated muteins or negative control were applied for 300 s at a flow rate of 5 μl/min. […] The reference channel was loaded with Biotin CAPture Reagent only.
(§2) Applying a flow rate of 30 μL/min, a multi cycle kinetics approach was used with a sample contact time of 180 s and a dissociation time of 4600 s. All measurements were performed at 25° C. […] Data were evaluated with Biacore T200 Evaluation software (V 1.0). Double referencing was used. A 1:1 Binding model was used to fit the raw data even though the analyte was known to be a multimer.

human angiopoietin-1 = target: T2, human angiopoietin-1; assay: competition ELISA format (FIG. 2)
Protocol: In the following detailed experimental protocol, incubation and washing steps were performed as described above in the competition ELISA protocol (see Example 5).

human angiopoietin-2 [2] = target: T1, human angiopoietin-2; assay: cell-based or functional assay
mouse angiopoietin-2 = target: T3, mouse angiopoietin-2; assay: competition cell ECL; mAng-2 pre-incubated with binder, free Ang-2 captured on HEK:hTie-2 cells (competitor)
Protocol: (§3) All incubation steps were performed at room temperature, and the plate was washed after each incubation step with 80 μl PBS buffer for two times using a Biotek EL405 select CW washer (Biotek). In the first step, a 384 well plate was precoated for 5 minutes with poly D lysine and washed twice with PBS. 10⁴ HEK:hTie-2 cells per well were seeded and allowed to adhere to the surface of the wells overnight at 37° C. . After washing, cell coated wells were blocked with 60 μl PBS/Casein (2% Casein in PBS) for 1 h at room temperature.
(§4) After washing, 35 μl surfactant-free reading buffer was added to each well and the ECL signal of every well was read using a Mesoscale Discovery reader.

human angiopoietin-2 [3] = target: T1, human angiopoietin-2; assay: SPR Biacore T200; biotinylated mutein captured, hAng-2 analyte, 1:1 model, 25 C
Protocol: as §1, §2

human angiopoietin-2 [4] = target: T1, human angiopoietin-2; assay: competition ELISA; 0.5 nM hAng-2 pre-incubated with binder, free hAng-2 captured on hTie-2 Fc (competitor)
Protocol: All incubation steps were performed with shaking at 300 rpm, and the plate was washed after each incubation step with 80 μl PBS-T buffer (PBS, 0.05% Tween 20) for five times using a Biotek EL405 select CW washer (Biotek). In the first step, a 384 well plate was directly coated with 20 μl of soluble human hTie-2 Fc (Reliatech) at a concentration of […] in PBS over night at 4 ° C. After washing, h Tie-2 Fc coated wells were blocked with 60 μl PBS-T/BSA (2% BSA in PBS containing 0.1% Tween 20) for 1 h at room temperature.
Curve fitting was performed using GraphPad Prism 4 software.

human angiopoietin-2 [5] = target: T1, human angiopoietin-2; assay: ELISA; Ang-2 coated, mutein detected by anti-Streptag-HRP
Protocol: Binding of muteins was tested by a sandwich ELISA assay.
20 μl of serially diluted muteins were incubated in PBS-T/BSA for 1h at room temperature (RT).
The residual supernatants were discarded and 20 μl HRP-labeled anti-Streptag antibody was added at a predetermined optimal concentration in PBS-T/BSA and incubated for 1 h at RT. After washing, 20 μl fluorogenic HRP substrate (QuantaBlu, Thermo) was added to each well, and the reaction was allowed to proceed for 15 to 60 minutes. The fluorescence intensity of every well on the plate was read using a fluorescence microplate reader (Tecan or Molecular Devices). Curve fitting was performed using GraphPad Prism 4 software.

human angiopoietin-2 [6] = target: T1, human angiopoietin-2; assay: competition cell ECL; hAng-2 pre-incubated with binder, free Ang-2 captured on HEK:hTie-2 cells (competitor)
Protocol: as §3, §4

human angiopoietin-2 [7] = target: T1, human angiopoietin-2; assay: SPR Biacore T200; lower end of the range, tied to SEQ ID NO: 11 by Table 3
Protocol: as §1, §2

human angiopoietin-2 [8] = target: T1, human angiopoietin-2; assay: SPR Biacore T200; biotinylated SEQ ID NO: 16 captured, hAng-2 analyte
Protocol: as §1, §2

Row | Kd (human angiopoietin-2 [1]) | binding result (human angiopoietin-1) | IC50 mean, LEC proliferation assay (CellTiter-Glo) (human angiopoietin-2 [2]) | IC50 (mouse angiopoietin-2) | Kd (human angiopoietin-2 [3]) | koff (human angiopoietin-2 [3]) | IC50 (human angiopoietin-2 [4]) | EC50 (human angiopoietin-2 [5]) | IC50 (human angiopoietin-2 [6]) | Kd (human angiopoietin-2 [7]) | Binder | binding result (human angiopoietin-2 [8])
1 | 0.2 to 1.4 nM | binds | 0.199 nM | 1.23 nM | 1.43 nM | 0.00026 s⁻¹ | 0.0619 nM | 2.1 nM | 3.6 nM |  | hNGAL lipocalin mutein SEQ ID NO: 7 (designed binder, Mutein of mature hNGAL; Biotinylated with NHS-PEG4-Biotin for the SPR assay) QDSTSDLIPAPPLSKVPLQQNFQDNQFHGKWYVVGHAGNYILREDKDPEKMWATIYELKEDKSYDVTEVSFGPKKCNYRIWTFVPGSQPGEFTLGGIKSPPGDTSTLVRVVSTNYNQHAMVFFKHVLQNREFFEITLYGRTKELTSELKENFIRFSKSLGLPENHIVFPVPIDQCIDGSAWSHPQFEK | 
2 |  |  | 0.169 nM | 1.45 nM | 0.21 nM | 0.00087 s⁻¹ | 0.0988 nM | 2.3 nM | 4.79 nM | 0.2 to 1.4 nM | hNGAL lipocalin mutein SEQ ID NO: 11 (designed binder, Mutein of mature hNGAL; Biotinylated with NHS-PEG4-Biotin for the SPR assay) QDSTSDLIPAPPLSKVPLQQNFQDNQFHGKWYVVGQAGNYILREDKDPVKMWATIYELKEDKSYDVTEVSFGPKKCNYRIWTFVPGSQPGEFTLGGIKSLPGGTSTLVRVVSTNYNQHAMVFFKHVLQNREFFEITLYGRTKELTSELKENFIRFSKSLGLPENHIVFPVPIDQCIDGSAWSHPQFEK | 
3 |  | binds | 0.078 nM | 1.25 nM | 0.37 nM | 0.00013 s⁻¹ | 0.0708 nM | 2.4 nM | 3.75 nM |  | hNGAL lipocalin mutein SEQ ID NO: 8 (designed binder, Mutein of mature hNGAL; Biotinylated with NHS-PEG4-Biotin for the SPR assay) QDSTSDLIPAPPLSKVPLQQNFQDNQFHGKWYVVGQAGNYILREDKDPGKMWATIYELKEDKSYDVTEVSFGAKKCNYRIWTFVPGSQPGEFTLGGIKSDPGGTSTLVRVVSTNYNQHAMVFFKHVLQNREFFEITLYGRTKELTSELKENFIRFSKSLGLPENHIVFPVPIDQCIDGSAWSHPQFEK | 
4 |  |  |  |  |  |  |  |  |  |  | mature hNGAL (SEQ ID NO: 16), negative control (other, Used as negative control; Biotinylated for the SPR assay; also called human lipocalin 2; human NGAL) QDSTSDLIPAPPLSKVPLQQNFQDNQFQGKWYVVGLAGNAILREDKDPQKMYATIYELKEDKSYNVTSVLFRKKKCDYWIRTFVPGCQPGEFTLGNIKSYPGLTSYLVRVVSTNYNQHAMVFFKKVSQNREYFKITLYGRTKELTSELKENFIRFSKSLGLPENHIVFPVPIDQCIDG | no binding (tested: human Ang-2 at 1-27 nM)
